B1: TPR t1 (parent)
chain: GACCAAUCUGCCCUCAGAGCUCGAGAACAUCUUCGGAUGCAGAGGAGGCAGGCUUCGGUGGCGCGAUAGCGCCAACGUCCUCAACCUCCAAUGCAUCCCACCACAUGAUGAUGCCUGAAGAGCCUUGGUUUUUUG

Variants of: B1
Test: polymerase ribozyme fitness, log enrichment relative to wild type (log ratio); higher = more active; in vitro selection for triplet polymerase activity
How it was run: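 The heterodimeric triplet polymerase ribozyme's subunits were each mutagenized into PCR-built libraries and transcribed. Every library was selected once, in triplicate, by annealing with a biotinylated primer, the partner subunit and triplets, incubating frozen at −7 °C, gel-excising extended constructs, capturing on streptavidin beads and running RT-PCR. Input and output libraries were Illumina-sequenced, with genotypes kept only at ≥10 input reads and ≥1 read per output. Fitness, from inverse-variance-weighted replicate averages, is the base-2 logarithm of genotype enrichment over wild-type enrichment.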

Variant | polymerase ribozyme fitness (log ratio)
U54G C82A | -0.235
U54G C82A A91C C115G | -4.39
U54G C85G U133A | -1.09
U54G C86A U129G | -0.985
U54G C101G C115G U116A | -6.37
U54G C102U | -1.84
U54G G60A U92A G107C G117A | -6.96
U54G G60C U112A G117C | -5
U54G G60U | -3.4
U54G G71A G120C | -6.71
U54G G71U C79A | -5.67
U54G G93A A111U | -3.35
U54G U112A G117C | -4.03
U54G U132C | -0.456
U55A | -0.12
U55A C56A | -0.0197
U55A C62U C72U G120A | -0.106
U55A C62U C85A A100U C102U | -5.11
U55A C64A C115G G128A | -6.49
U55A C73A | 0.5
U55A C73U A83G | -1.24
U55A C85A U112G | -2.37
U55A C88U | 0.678
U55A C101G | -1.85

Variant | polymerase ribozyme fitness (log ratio)
U55A C114U | -2.35
U55A G61U | -0.0687
U55A G63A U78A | -0.969
U55A G77A A111U C114U | -5.73
U55A U59C U78G C82A G110A | -2.6
U55A U133A | -0.185
U55C | -0.521
U55C A66U A75U | -0.518
U55C A91U C94A | -2.3
U55C C56U G69C C85U | -4.97
U55C C62G G128U | -4.02
U55C C62U C89A U109A | -6.44
U55C C62U C98A | -6.18
U55C C72G C79U | 0.018
U55C C73A C76G A121U | 0.355
U55C C82G A91C A105U C123G | -6.04
U55C C85A G113C | -3.66
U55C C88U | -0.394
U55C C123A | -0.354
U55C G57U A66C | 0.353
U55C G57U A66C C123G U132A | 0.759
U55C G58A G60U U78A G110A | -1.19
U55C G61A C104A | -1.51
U55C G61U A90G U112C A119U | 0.196

Variant | polymerase ribozyme fitness (log ratio)
U55C G69U A90G U112C A119U | 0.0646
U55C G71A A90G G113U | -2.42
U55C G71C C104U | -0.984
U55C U59G C114U | -1.28
U55C U106G | -1.88
U55G | 0.0266
U55G A74U U81A C85G G122A | -4.4
U55G A100C | -0.346
U55G A121C | 0.81
U55G C56A A83G | -1.72
U55G C56U C88G | -2.34
U55G C70G | -2.34
U55G C72G A100C A111U | -4.23
U55G C73G | 1
U55G C73G C123U | 0.666
U55G C82U A100U G113U | -4.11
U55G C88G | -0.483
U55G G61A C73U U81A C114A A119U | -3.58
U55G G69C A119U G127C | -1.89
U55G G117U | -2.73
U55G U78A | -0.34
U55G U130G | -0.58
C56A A83G | -1.6
C56A A83G A84C G135C | -0.872

Variant | polymerase ribozyme fitness (log ratio)
C56A A90C | -1.57
C56A A100C | -1.19
C56A A118G | -0.557
C56A C64U | -0.751
C56A C64U C124U G128A | -1.71
C56A C70U U92G | -4.08
C56A C72A | -0.579
C56A C72G A90G | -1.05
C56A C72U C82U C85U | -1.52
C56A C73A C94U G113A | -2.48
C56A C73U C97U A103U G120C | -7.26
C56A C76G | 0.138
C56A C79G C123G U133A | 1.29
C56A C79G G93A | -2.59
C56A C80A | -2.22
C56A C86U | -0.995
C56A C88G A118U | -1.12
C56A C88U A95C A108G | -3.49
C56A C97U | -1.33
C56A C97U G113U | -4.2
C56A C99A | -6.08
C56A C101U G110A | -1.05
C56A C114U C115U U131C | -5.83
C56A C115A | -0.059

Variant | polymerase ribozyme fitness (log ratio)
C56A C115U U130A | -1.24
C56A C124A G127A | 0.497
C56A G57C | 0.379
C56A G57U U78C G113C | -3.22
C56A G58C | -0.496
C56A G60A G69C | -3.21
C56A G60U | 0.0473
C56A G61A U92C | -4.04
C56A G61C | -5.03
C56A G63A A91C | -5.68
C56A G63U G77C C115G | -4.37
C56A G69A C101U G110A | -5.53
C56A G69U C73U C124A | 1.14
C56A G71A A100U | -5.55
C56A G71A C86A C104A | -6.75
C56A G93U | -2.21
C56A G107A | -3.75
C56A G107A A121C | -4.32
C56A G113C | -1.7
C56A G120U | -0.119
C56A G127A | -1.47
C56A G128C | -2.8
C56A U59G A83G | -1.48
C56A U67A | -6.26

Variant | polymerase ribozyme fitness (log ratio)
C56A U78C C98A G122A C123U U132A | -5.25
C56A U87G A108G G113C | -3.65
C56A U92A | -3.75
C56A U92G | -2.6
C56A U96G G113A | -1.95
C56A U106A | -0.695
C56A U112A | 1.46
C56G A66G C94A | -2.49
C56G A68G C73A A111G G135U | -6.08
C56G A74U | -0.327
C56G A74U C86A | -2.4
C56G A75G U109C | -7.14
C56G A83C C101A C124G | 0.428
C56G A84G G120A | -0.771
C56G A111C A119U | -1.72
C56G C62G | -3.35
C56G C62U A103U U109G | -6.92
C56G C62U C64U C82A C89U C123A | -3.52
C56G C64U | -0.732
C56G C64U C123U | 0.0926
C56G C70A A118U | -2.37
C56G C72G C115A | -2.98
C56G C73G | -2.66
C56G C79U | -0.342

Variant | polymerase ribozyme fitness (log ratio)
C56G C80A | -1.38
C56G C82G C115G A121U | -0.801
C56G C82U A91C U116C | -2.61
C56G C88U C94A G110U | -4.78
C56G C89G A90C | -3.29
C56G C89G U96A | -2.31
C56G C94G | -1.87
C56G C94G U112A | -0.000426
C56G C99A | -6.98
C56G C102A | -1.59
C56G C114G | -3.74
C56G G57A G61C A118G | -4.8
C56G G58C | 0.394
C56G G58U U59C | 1.36
C56G G69U | -0.682
C56G G69U U81A C88A A100U | -2.69
C56G G71U A121C | -2.41
C56G G77C U130G | -0.115
C56G G110A U116G | -3.62
C56G G113C | -1.92
C56G G120C | 0.755
C56G U59G C97A | -5.51
C56G U87A G120A | -0.872

Reference: the RNAGym collection of RNA variant scans (doi:10.1073/pnas.2313332121)
